Results reported in US20140087995A1 (published 2014).
Numbered stars: 1 amine (or outer) side, 2 acyl side, 3 side chain; on linkers, the order of the positions; unused ones are H or OH. Bridge positions count the residues as written; N and C are the ends. Side chains are listed from the residue outwards. Ends that are not written are not given here. * marks the point of attachment. C20 diacid = O=C(O)CCCCCCCCCCCCCCCCCCC(=O)*; γGlu = O=C(O)[C@H](CCC(=O)[*:2])N[*:1]

B1: N^ε1-[(4S)-4-carboxy-4-(19-carboxynonadecanoylamino)butanoyl]-[Arg17,Pro21,Pro27,His35]-h-amylin (peptide)
peptide: K([γGlu-C20 diacid])CNTATCATQRLANFLRHSSPNFGAIPSSTNVGSHTY-NH2
modifications: disulfide 2-7; N-terminus assumed
SMILES: CC[C@H](C)[C@H](NC(=O)[C@H](C)NC(=O)CNC(=O)[C@H](Cc1ccccc1)NC(=O)[C@H](CC(N)=O)NC(=O)[C@@H]1CCCN1C(=O)[C@H](CO)NC(=O)[C@H](CO)NC(=O)[C@H](Cc1c[nH]cn1)NC(=O)[C@H](CCCNC(=N)N)NC(=O)[C@H](CC(C)C)NC(=O)[C@H](Cc1ccccc1)NC(=O)[C@H](CC(N)=O)NC(=O)[C@H](C)NC(=O)[C@H](CC(C)C)NC(=O)[C@H](CCCNC(=N)N)NC(=O)[C@H](CCC(N)=O)NC(=O)[C@@H](NC(=O)[C@H](C)NC(=O)[C@@H]1CSSC[C@H](NC(=O)[C@@H](N)CCCCNC(=O)CC[C@H](NC(=O)CCCCCCCCCCCCCCCCCCC(=O)O)C(=O)O)C(=O)N[C@@H](CC(N)=O)C(=O)N[C@@H]([C@@H](C)O)C(=O)N[C@@H](C)C(=O)N[C@@H]([C@@H](C)O)C(=O)N1)[C@@H](C)O)C(=O)N1CCC[C@H]1C(=O)N[C@@H](CO)C(=O)N[C@@H](CO)C(=O)N[C@H](C(=O)N[C@@H](CC(N)=O)C(=O)N[C@H](C(=O)NCC(=O)N[C@@H](CO)C(=O)N[C@@H](Cc1c[nH]cn1)C(=O)N[C@H](C(=O)N[C@@H](Cc1ccc(O)cc1)C(N)=O)[C@@H](C)O)C(C)C)[C@@H](C)O
notes: also called compound 60
B2: N^ε1-[(4S)-4-carboxy-4-[[(4S)-4-carboxy-4-(19-carboxynonadecanoylamino)butanoyl]amino]butanoyl]-[Arg17,Pro21,Pro27,His34]-h-amylin (peptide)
peptide: K([γGlu-γGlu-C20 diacid])CNTATCATQRLANFLRHSSPNFGAIPSSTNVGHNTY-NH2
modifications: disulfide 2-7; N-terminus assumed
SMILES: CC[C@H](C)[C@H](NC(=O)[C@H](C)NC(=O)CNC(=O)[C@H](Cc1ccccc1)NC(=O)[C@H](CC(N)=O)NC(=O)[C@@H]1CCCN1C(=O)[C@H](CO)NC(=O)[C@H](CO)NC(=O)[C@H](Cc1c[nH]cn1)NC(=O)[C@H](CCCNC(=N)N)NC(=O)[C@H](CC(C)C)NC(=O)[C@H](Cc1ccccc1)NC(=O)[C@H](CC(N)=O)NC(=O)[C@H](C)NC(=O)[C@H](CC(C)C)NC(=O)[C@H](CCCNC(=N)N)NC(=O)[C@H](CCC(N)=O)NC(=O)[C@@H](NC(=O)[C@H](C)NC(=O)[C@@H]1CSSC[C@H](NC(=O)[C@@H](N)CCCCNC(=O)CC[C@H](NC(=O)CC[C@H](NC(=O)CCCCCCCCCCCCCCCCCCC(=O)O)C(=O)O)C(=O)O)C(=O)N[C@@H](CC(N)=O)C(=O)N[C@@H]([C@@H](C)O)C(=O)N[C@@H](C)C(=O)N[C@@H]([C@@H](C)O)C(=O)N1)[C@@H](C)O)C(=O)N1CCC[C@H]1C(=O)N[C@@H](CO)C(=O)N[C@@H](CO)C(=O)N[C@H](C(=O)N[C@@H](CC(N)=O)C(=O)N[C@H](C(=O)NCC(=O)N[C@@H](Cc1c[nH]cn1)C(=O)N[C@@H](CC(N)=O)C(=O)N[C@H](C(=O)N[C@@H](Cc1ccc(O)cc1)C(N)=O)[C@@H](C)O)C(C)C)[C@@H](C)O
notes: also called compound 86
B3: N^ε1-[(4S)-4-carboxy-4-(19-carboxynonadecanoylamino)butanoyl]-[His14,Arg17,Pro21,Pro27,Arg34]-h-amylin (peptide)
peptide: K([γGlu-C20 diacid])CNTATCATQRLAHFLRHSSPNFGAIPSSTNVGRNTY-NH2
modifications: disulfide 2-7; N-terminus assumed
SMILES: CC[C@H](C)[C@H](NC(=O)[C@H](C)NC(=O)CNC(=O)[C@H](Cc1ccccc1)NC(=O)[C@H](CC(N)=O)NC(=O)[C@@H]1CCCN1C(=O)[C@H](CO)NC(=O)[C@H](CO)NC(=O)[C@H](Cc1c[nH]cn1)NC(=O)[C@H](CCCNC(=N)N)NC(=O)[C@H](CC(C)C)NC(=O)[C@H](Cc1ccccc1)NC(=O)[C@H](Cc1c[nH]cn1)NC(=O)[C@H](C)NC(=O)[C@H](CC(C)C)NC(=O)[C@H](CCCNC(=N)N)NC(=O)[C@H](CCC(N)=O)NC(=O)[C@@H](NC(=O)[C@H](C)NC(=O)[C@@H]1CSSC[C@H](NC(=O)[C@@H](N)CCCCNC(=O)CC[C@H](NC(=O)CCCCCCCCCCCCCCCCCCC(=O)O)C(=O)O)C(=O)N[C@@H](CC(N)=O)C(=O)N[C@@H]([C@@H](C)O)C(=O)N[C@@H](C)C(=O)N[C@@H]([C@@H](C)O)C(=O)N1)[C@@H](C)O)C(=O)N1CCC[C@H]1C(=O)N[C@@H](CO)C(=O)N[C@@H](CO)C(=O)N[C@H](C(=O)N[C@@H](CC(N)=O)C(=O)N[C@H](C(=O)NCC(=O)N[C@@H](CCCNC(=N)N)C(=O)N[C@@H](CC(N)=O)C(=O)N[C@H](C(=O)N[C@@H](Cc1ccc(O)cc1)C(N)=O)[C@@H](C)O)C(C)C)[C@@H](C)O
notes: also called compound 85
B4: N^ε1-[(4S)-4-carboxy-4-(19-carboxynonadecanoylamino)butanoyl]-[His14,Arg17,Pro21,Pro27,His35]-h-amylin (peptide)
peptide: K([γGlu-C20 diacid])CNTATCATQRLAHFLRHSSPNFGAIPSSTNVGSHTY-NH2
modifications: disulfide 2-7; N-terminus assumed
SMILES: CC[C@H](C)[C@H](NC(=O)[C@H](C)NC(=O)CNC(=O)[C@H](Cc1ccccc1)NC(=O)[C@H](CC(N)=O)NC(=O)[C@@H]1CCCN1C(=O)[C@H](CO)NC(=O)[C@H](CO)NC(=O)[C@H](Cc1c[nH]cn1)NC(=O)[C@H](CCCNC(=N)N)NC(=O)[C@H](CC(C)C)NC(=O)[C@H](Cc1ccccc1)NC(=O)[C@H](Cc1c[nH]cn1)NC(=O)[C@H](C)NC(=O)[C@H](CC(C)C)NC(=O)[C@H](CCCNC(=N)N)NC(=O)[C@H](CCC(N)=O)NC(=O)[C@@H](NC(=O)[C@H](C)NC(=O)[C@@H]1CSSC[C@H](NC(=O)[C@@H](N)CCCCNC(=O)CC[C@H](NC(=O)CCCCCCCCCCCCCCCCCCC(=O)O)C(=O)O)C(=O)N[C@@H](CC(N)=O)C(=O)N[C@@H]([C@@H](C)O)C(=O)N[C@@H](C)C(=O)N[C@@H]([C@@H](C)O)C(=O)N1)[C@@H](C)O)C(=O)N1CCC[C@H]1C(=O)N[C@@H](CO)C(=O)N[C@@H](CO)C(=O)N[C@H](C(=O)N[C@@H](CC(N)=O)C(=O)N[C@H](C(=O)NCC(=O)N[C@@H](CO)C(=O)N[C@@H](Cc1c[nH]cn1)C(=O)N[C@H](C(=O)N[C@@H](Cc1ccc(O)cc1)C(N)=O)[C@@H](C)O)C(C)C)[C@@H](C)O
notes: also called compound 66
B5: N^ε1-[(4S)-4-carboxy-4-(19-carboxynonadecanoylamino)butanoyl]-[His14,Arg17,Pro21,Pro27,Pro31]-h-amylin (peptide)
peptide: K([γGlu-C20 diacid])CNTATCATQRLAHFLRHSSPNFGAIPSSTPVGSNTY-NH2
modifications: disulfide 2-7; N-terminus assumed
SMILES: CC[C@H](C)[C@H](NC(=O)[C@H](C)NC(=O)CNC(=O)[C@H](Cc1ccccc1)NC(=O)[C@H](CC(N)=O)NC(=O)[C@@H]1CCCN1C(=O)[C@H](CO)NC(=O)[C@H](CO)NC(=O)[C@H](Cc1c[nH]cn1)NC(=O)[C@H](CCCNC(=N)N)NC(=O)[C@H](CC(C)C)NC(=O)[C@H](Cc1ccccc1)NC(=O)[C@H](Cc1c[nH]cn1)NC(=O)[C@H](C)NC(=O)[C@H](CC(C)C)NC(=O)[C@H](CCCNC(=N)N)NC(=O)[C@H](CCC(N)=O)NC(=O)[C@@H](NC(=O)[C@H](C)NC(=O)[C@@H]1CSSC[C@H](NC(=O)[C@@H](N)CCCCNC(=O)CC[C@H](NC(=O)CCCCCCCCCCCCCCCCCCC(=O)O)C(=O)O)C(=O)N[C@@H](CC(N)=O)C(=O)N[C@@H]([C@@H](C)O)C(=O)N[C@@H](C)C(=O)N[C@@H]([C@@H](C)O)C(=O)N1)[C@@H](C)O)C(=O)N1CCC[C@H]1C(=O)N[C@@H](CO)C(=O)N[C@@H](CO)C(=O)N[C@H](C(=O)N1CCC[C@H]1C(=O)N[C@H](C(=O)NCC(=O)N[C@@H](CO)C(=O)N[C@@H](CC(N)=O)C(=O)N[C@H](C(=O)N[C@@H](Cc1ccc(O)cc1)C(N)=O)[C@@H](C)O)C(C)C)[C@@H](C)O
notes: also called compound 62
B6: N^ε1-[(4S)-4-carboxy-4-(19-carboxynonadecanoylamino)butanoyl]-[His14,Arg17,Pro21,Pro27,His34]-h-amylin (peptide)
peptide: K([γGlu-C20 diacid])CNTATCATQRLAHFLRHSSPNFGAIPSSTNVGHNTY-NH2
modifications: disulfide 2-7; N-terminus assumed
SMILES: CC[C@H](C)[C@H](NC(=O)[C@H](C)NC(=O)CNC(=O)[C@H](Cc1ccccc1)NC(=O)[C@H](CC(N)=O)NC(=O)[C@@H]1CCCN1C(=O)[C@H](CO)NC(=O)[C@H](CO)NC(=O)[C@H](Cc1c[nH]cn1)NC(=O)[C@H](CCCNC(=N)N)NC(=O)[C@H](CC(C)C)NC(=O)[C@H](Cc1ccccc1)NC(=O)[C@H](Cc1c[nH]cn1)NC(=O)[C@H](C)NC(=O)[C@H](CC(C)C)NC(=O)[C@H](CCCNC(=N)N)NC(=O)[C@H](CCC(N)=O)NC(=O)[C@@H](NC(=O)[C@H](C)NC(=O)[C@@H]1CSSC[C@H](NC(=O)[C@@H](N)CCCCNC(=O)CC[C@H](NC(=O)CCCCCCCCCCCCCCCCCCC(=O)O)C(=O)O)C(=O)N[C@@H](CC(N)=O)C(=O)N[C@@H]([C@@H](C)O)C(=O)N[C@@H](C)C(=O)N[C@@H]([C@@H](C)O)C(=O)N1)[C@@H](C)O)C(=O)N1CCC[C@H]1C(=O)N[C@@H](CO)C(=O)N[C@@H](CO)C(=O)N[C@H](C(=O)N[C@@H](CC(N)=O)C(=O)N[C@H](C(=O)NCC(=O)N[C@@H](Cc1c[nH]cn1)C(=O)N[C@@H](CC(N)=O)C(=O)N[C@H](C(=O)N[C@@H](Cc1ccc(O)cc1)C(N)=O)[C@@H](C)O)C(C)C)[C@@H](C)O
notes: also called compound 81

Biological target: T1, human calcitonin receptor (human, UniProt P30988 25-474)
T1 sequence (looked up): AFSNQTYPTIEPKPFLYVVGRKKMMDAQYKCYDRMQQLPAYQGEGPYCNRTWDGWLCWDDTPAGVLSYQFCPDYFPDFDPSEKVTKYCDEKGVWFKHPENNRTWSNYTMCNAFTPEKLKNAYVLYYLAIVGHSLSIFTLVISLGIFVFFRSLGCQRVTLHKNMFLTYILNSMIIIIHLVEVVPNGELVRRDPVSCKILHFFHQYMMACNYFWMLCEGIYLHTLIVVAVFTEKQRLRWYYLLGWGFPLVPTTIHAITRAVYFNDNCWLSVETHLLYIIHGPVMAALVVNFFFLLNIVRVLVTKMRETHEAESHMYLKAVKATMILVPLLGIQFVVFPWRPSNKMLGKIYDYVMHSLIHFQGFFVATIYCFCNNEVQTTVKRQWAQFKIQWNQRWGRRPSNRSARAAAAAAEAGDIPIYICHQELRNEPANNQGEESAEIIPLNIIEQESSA
Experiment: cell-based or functional assay

hCTR funct. EC50 | Binder
5360 pM | B1
19200 pM | B2
3880 pM | B3
542 pM | B4
539 pM | B5
1730 pM | B6
